Among the data in patent publication US20140219913A1 are N-terminal L929 Assay (EC50, pM) values, retold here.

This assay addresses TNF-alpha. The assay is described as follows: cell-based or functional assay.

As to Etanercept (Fc fusion), the N-terminal L929 Assay (EC50, pM) came out at 1.5 pM.
